Measured values: the supplement of paper PMC10126150
± gives the standard deviation of the averaged measurements.

These sequences were tested on ATP (assay: switch fluorescence ratio, 500 uM ATP over buffer (Cy3 cluster intensity, sum of 5 cycles each) (fold (ratio)); higher = stronger signal-on switching upon ATP binding; sequences stand for … in TCGTCGGCAGCGTCAGATGTGTATAAGAGACAGTTTTTTTTTTTTTTTTTTTTTTTTT…TC). Settings: aptamer strand: ATP DNA aptamer (quencher-CACCTGGGGGAGTATTGCGGAGGAAGG + anchor), 100 nM annealed; ATP concentration: 500 uM.
How it was run: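 The quencher-labelled ATP aptamer, at 100 nM, was annealed to Cy3-labelled switching-strand clusters on a modified Illumina MiSeq flow-cell. The clusters were imaged in selection buffer, then after 15 min with 500 uM ATP at 22 °C, and this buffer/ATP cycle ran five times with NaOH stripping and re-annealing between runs. Per-cluster fluorescence ratios, summed target-cycle over summed buffer-cycle Cy3 intensity, were averaged per switch-domain sequence. Clusters outside 100-1000 RFU were excluded.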
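Note: ATP exposure 15 min at 22 °C before imaging.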

Point of comparison: AGTGATAAGT, switch fluorescence ratio 0.969 ± 0.015. Against it:
- TCTGGGAGAA — within error, 0.992 ± 0.042
- ATAAGGAGTT — within error, 1.01 ± 0.045
- CCATCGTACC — higher, 1.3 ± 0.018
- AAGGCTGTGT — higher, 1.001 ± 0.0095
- TATATTACTG — within error, 1.09 ± 0.12
- GCTCCCGGGC — higher, 1.1 ± 0.041
- GAATTTGTGA — within error, 0.98 ± 0.035
- GGTGTTAGGG — higher, 1.02 ± 0.027
- ACGGAATGTT — higher, 1.0819 ± 0.00046
- GTAAATTATG — within error, 0.986 ± 0.018
- GTGATGACAT — higher, 1 ± 0.013
- GCAATTAAAT — within error, 0.996 ± 0.036
- GTTTTGACAT — higher, 0.993 ± 0.0013
- ATGGGTTCTG — within error, 0.999 ± 0.017
- CCACAGAGGG — higher, 1.21 ± 0.17
- TGAAGTTGG — higher, 1.01 ± 0.019
- TAAATAATAT — higher, 1.01 ± 0.019
- TAGCTAGACG — higher, 1.01 ± 0.012
- CGTAGGGGGG — within error, 0.986 ± 0.03
- CGACGTGAGT — higher, 1.036 ± 0.0042
- AGTTCTGTCG — within error, 1.01 ± 0.09
- AGGCAAAGGC — higher, 1.06 ± 0.036
- TTAAAAAGTG — within error, 1.02 ± 0.068
- GGGAGGGGGT — within error, 1 ± 0.035
- AAAGTATCTT — within error, 1.02 ± 0.037
- GGAAGTCCGG — higher, 1.03 ± 0.022
- GGAATAGTTT — within error, 1.03 ± 0.047
- GCGGTGGCGG — within error, 0.987 ± 0.039
- TGACAACCGG — higher, 1.05 ± 0.021
- GCGGTAGGTT — higher, 1.01 ± 0.013
- AGTTTGGGGG — within error, 0.966 ± 0.029
- AGGTATTGG — higher, 1.008 ± 0.0055
- AGAGGTTCC — within error, 1 ± 0.058
- TGACGGGGAT — within error, 1.25 ± 0.33
- TTAATAACGG — within error, 1.04 ± 0.06
- TTAGCTATCT — higher, 1.04 ± 0.021
- TGGCGGTGCT — within error, 0.997 ± 0.028
- CAGATGGTCG — within error, 0.938 ± 0.057
- AAAGGGAACA — higher, 1.01 ± 0.019
- ATAGGGTCCG — within error, 0.977 ± 0.024
- GCTGTAACTG — higher, 1.08 ± 0.017
- TGAGGTATGC — within error, 0.994 ± 0.031
- AAAAATGCGG — within error, 1.01 ± 0.077
- CGTGATGTTT — within error, 1 ± 0.047
- GACATTCACC — higher, 1.1 ± 0.016
- GTTAATAGTG — within error, 0.988 ± 0.021
- TAAAAAAGG — within error, 0.997 ± 0.042
- CCAGAGGGTT — higher, 1.03 ± 0.031
- CTCGTGAGTT — higher, 1.02 ± 0.021
- TGCGAGTATT — higher, 1.038 ± 0.0023
- CGAGTAGGAA — within error, 0.984 ± 0.017
- GGCGAAAATA — higher, 1.007 ± 0.0079
- GGGCAGGTGG — higher, 1.08 ± 0.065
- GAGTTAAAAG — higher, 1.01 ± 0.02
- AGTTGGCTTA — higher, 1.01 ± 0.013
- TTAGATAGGA — higher, 0.999 ± 0.01
- AGGGTGTTAT — within error, 0.993 ± 0.022
- GCGAATGATG — within error, 0.966 ± 0.024
- TTTCCGGTGC — higher, 1.7 ± 0.13
- ATACCCTGGG — higher, 1.03 ± 0.035
- GTTTATATAT — higher, 1.03 ± 0.035
- GGTCATTCAA — within error, 0.982 ± 0.027
- TTAGGTAACG — within error, 0.977 ± 0.027
- CTTACTATTG — within error, 1.03 ± 0.05
- CACCATCTTG — within error, 0.987 ± 0.019
- CAGTTTCAGG — within error, 0.966 ± 0.043
- ATTTATTGGC — within error, 1.02 ± 0.042
- GGAGGGAGGA — within error, 1.25 ± 0.3
- ATGCTTGATT — higher, 1.017 ± 0.0041
- GTAAGGCGCA — within error, 0.9885 ± 0.0086
- GGGGGTATAT — higher, 1.03 ± 0.019
- CAGGTTGCCT — within error, 0.999 ± 0.046
- GCAATTCCGG — higher, 1.21 ± 0.035
- AATATTCCAT — within error, 1.02 ± 0.045
- TGCAAAGATT — within error, 0.99 ± 0.016
- ATTGGACAGT — within error, 1 ± 0.075
- GGACTTGGGT — within error, 0.9702 ± 0.0082
- TAAAAAGGGA — higher, 1.02 ± 0.02
- ACTTGCTTGT — higher, 1.02 ± 0.013
- GGAAATTTTT — within error, 0.973 ± 0.019
- AACAGCGGGC — within error, 1.03 ± 0.084
- TAGGCTCCAA — higher, 1.01 ± 0.02
- AATGAAGTGT — higher, 0.996 ± 0.012
- ACGATAGGCC — higher, 1.03 ± 0.028
- AAAAGTTTTC — within error, 0.975 ± 0.0098
- ATTTTAATTG — higher, 1.02 ± 0.016
- TTACTTGTTT — within error, 1 ± 0.023
- TTCTTAGCAC — higher, 1.58 ± 0.17
- CTCCAGTCAG — higher, 1.51 ± 0.055
- TGCAGCGTTC — higher, 1.27 ± 0.053
- GAGTGGGAGG — higher, 1.02 ± 0.026
- ATGATTGCGA — within error, 1.01 ± 0.061
- GAGTAGCGGA — within error, 0.999 ± 0.042
- GTAGAAAGGA — within error, 2.3 ± 1.8
- AGACGTCCCA — higher, 1.02 ± 0.022
- GTAGTAGGGC — higher, 1.06 ± 0.016
- TATTCCAATA — within error, 0.995 ± 0.03
- TGAAAATACC — higher, 1.011 ± 0.01
- AGGAGGAGGA — higher, 1.07 ± 0.065
- GTGGGGTTTG — within error, 1.01 ± 0.041
- ATGAGGGTCG — within error, 0.993 ± 0.014
- TTGCAAGGGC — higher, 1.08 ± 0.074
- GAATATAGTT — higher, 0.9947 ± 0.0078
- GTTTACTCTT — within error, 0.996 ± 0.025
- ACCGGGGGTA — within error, 0.991 ± 0.024
- AGGTCATTGA — within error, 1 ± 0.021
- TGTCTATTTT — higher, 1.019 ± 0.0033
- TTTTATGCTA — within error, 1 ± 0.054
- CGTATGGATA — within error, 0.998 ± 0.028
- CATATTTCCA — within error, 0.99 ± 0.02
- AACGGGTCTA — within error, 1.01 ± 0.035
- AGTTTTTTGG — within error, 1.01 ± 0.033
- AAACGTCTGA — higher, 0.9936 ± 0.0016
- GACGGTTGCG — within error, 0.977 ± 0.054
- TTGGCGAAGG — within error, 0.982 ± 0.045
- CGGAAGGCTT — within error, 0.982 ± 0.0095
- AATAAAAAAC — within error, 1.05 ± 0.078
- TCGGGGCTGG — higher, 1.02 ± 0.029
- AAAAGCAGTT — higher, 1.028 ± 0.004
- CTGGATCCTG — within error, 1.02 ± 0.053
- TTAGTGTGCT — within error, 1 ± 0.026
- GCTTTACTGT — higher, 1.01 ± 0.013
- TATTATGAAT — higher, 0.999 ± 0.0024
- TTATAGTTTG — within error, 0.997 ± 0.03
- TGACGTTTTG — within error, 0.9792 ± 0.0046
- TGTAGGGGGC — within error, 1.27 ± 0.39
- ATTGTAATAG — higher, 1.04 ± 0.05
- GATTGGGGTT — within error, 0.978 ± 0.036
- TATAAAAGGG — within error, 1.03 ± 0.078
- TTAATGAGTG — within error, 0.99 ± 0.015
- TGACTATGCT — within error, 0.98 ± 0.02
- GGGCTTCTTG — within error, 0.962 ± 0.021
- ATGGGGGTTG — within error, 0.999 ± 0.018
- TTTTTTATGA — higher, 1.03 ± 0.027
- AAGTTAGACC — higher, 1.026 ± 0.0041
- CGTTACTACG — higher, 1.06 ± 0.028
- ATACGAAGGC — within error, 0.985 ± 0.093
- TCTAATTGTT — higher, 0.9991 ± 0.0053
- ATTGCTCTGT — higher, 1.04 ± 0.036
- GCGGGATACA — higher, 1.07 ± 0.034
- CTTTTGGGGG — within error, 0.991 ± 0.028
- GGTAAAAGTT — higher, 1.01 ± 0.022
- GGTTTGGGGC — within error, 1.03 ± 0.074
- GTGGGGAAAG — within error, 0.99 ± 0.034
- AATGGCAGGG — within error, 0.988 ± 0.039
- GAGGCGGATT — higher, 1.01 ± 0.026
- AGTTCGGGCA — within error, 0.998 ± 0.021
- TTTCGTTTCT — higher, 1.03 ± 0.024
- CCGGACAGGT — higher, 1.13 ± 0.023
- ATCCTAAGGC — within error, 1 ± 0.029
- AGCCTTTACA — within error, 0.994 ± 0.011
- TGTAGAGGTG — higher, 1.09 ± 0.022
- TATCATCGGT — within error, 1 ± 0.047
- TAAGGTATTT — higher, 1.01 ± 0.023
- GCATGAAACT — higher, 1.03 ± 0.034
- AAAAATAAGC — within error, 1.03 ± 0.072
- AGGGGGCTTT — within error, 0.985 ± 0.021
- GCCGGGCCGG — within error, 0.9666 ± 0.0055
- CAGTTATGCC — within error, 0.988 ± 0.077
- CGCTGAGAGG — within error, 1 ± 0.027
- CTTAAATGTT — higher, 1.014 ± 0.0078
- AAAGAAGAGA — higher, 1.021 ± 0.0069
- ATTTATGTGC — higher, 1.01 ± 0.025
- TGAATGATCG — higher, 1.07 ± 0.032
- TGGTGCTGGG — within error, 0.9733 ± 0.0066
- TGAGTTCGCA — higher, 1.69 ± 0.13
- ATAAACGTTA — higher, 1.1 ± 0.018
- ACTTTGGAGA — higher, 1.029 ± 0.0054
- AAGAGGTGTT — within error, 1.04 ± 0.071
- TTGGTTTTTC — higher, 1.01 ± 0.025
- GGAGTCTGG — higher, 1.0086 ± 0.0004
- AGGGGAGAGA — higher, 1.04 ± 0.014
- TAGGTGGTGC — within error, 0.986 ± 0.045
- TATGCACGGA — within error, 1.07 ± 0.09
- AAGGGGTGTG — higher, 0.998 ± 0.013
- GGTACACGGG — within error, 1.01 ± 0.054
- GGGAAAGAAT — within error, 0.978 ± 0.011
- CATAGGGCTT — within error, 0.963 ± 0.025
- CGCTGAAAGG — higher, 1.02 ± 0.026
- AAATGCTACT — higher, 1.02 ± 0.028
- TATAAGTTAT — within error, 0.993 ± 0.029
- TAGGGACGCC — higher, 1.031 ± 0.0046
- GTGGGGTAGT — within error, 0.995 ± 0.018
- TTTCCAGACT — within error, 0.968 ± 0.019
- ACATCGGGTG — within error, 1.42 ± 0.59
- GACCCTGATA — within error, 0.987 ± 0.015
- CATGGGGGTA — within error, 0.982 ± 0.026
- TTTTGGCTTA — higher, 0.9945 ± 0.007
- CGGGTACATG — within error, 1.03 ± 0.048
- GTGGCTAATT — higher, 1 ± 0.015
- AGACTGCATT — higher, 1.06 ± 0.03
- CATGTGTAAT — higher, 1.009 ± 0.0086
- CAGGACGGGG — within error, 1.01 ± 0.038
- GCATTTTGAA — higher, 1.02 ± 0.026
- TTGACGACGG — within error, 1.01 ± 0.048
- ATGGATTTAT — within error, 0.992 ± 0.037
- ACGTTTAACT — higher, 1.25 ± 0.015
- TAGGGTCGT — higher, 0.9932 ± 0.0024
- GATTGGAGCG — higher, 1.008 ± 0.0031
